The record followed here is the RNAGym collection of RNA variant scans (doi:10.1073/pnas.2313332121).

First the molecules themselves.
B1: TPR t1 (parent)
chain: GACCAAUCUGCCCUCAGAGCUCGAGAACAUCUUCGGAUGCAGAGGAGGCAGGCUUCGGUGGCGCGAUAGCGCCAACGUCCUCAACCUCCAAUGCAUCCCACCACAUGAUGAUGCCUGAAGAGCCUUGGUUUUUUG

In the data set the parent is B1. The data set can be described thus: polymerase ribozyme fitness, log enrichment relative to wild type (log ratio); higher = more active; in vitro selection for triplet polymerase activity. Summed up: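 Fitness is a logarithmic measure of how a genotype enriched relative to the wild type, with replicate averages weighted by inverse variance. The logarithm uses base 2, and enrichment came from Illumina sequencing of input and output libraries. Those libraries were PCR-built, transcribed mutants of each subunit of a heterodimeric triplet polymerase ribozyme, passed through one triplicate in vitro selection round that included frozen incubation at −7 °C, gel excision of extended constructs and streptavidin-bead capture. Genotypes were kept only if they had ≥10 input reads and ≥1 read per output.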
Regarding U9A G77U C123U, the “polymerase ribozyme fitness (log ratio)” value was 1.84.

For the variant U9A G127U, the “polymerase ribozyme fitness (log ratio)” value came out at 0.46.

Take U9C C12A U21A C80A U87A G93U A121U U126G: the “polymerase ribozyme fitness (log ratio)” value is -5.57.

U9A G48C C86A C101A C114U C124U: the “polymerase ribozyme fitness (log ratio)” value was -2.84.

U9C C22U G58A G61C C114A: the “polymerase ribozyme fitness (log ratio)” value was -4.7.

With U9A G44U, the “polymerase ribozyme fitness (log ratio)” value was -0.143.

As to U9A G47A U96G, the “polymerase ribozyme fitness (log ratio)” value was -0.976.

Regarding U9A G48U A50U G60A C86G, the “polymerase ribozyme fitness (log ratio)” value was -1.49.

On to U9C C12G C13G A50C C70U C76A U78A C85U, for which the “polymerase ribozyme fitness (log ratio)” value is -2.55.

On to U9C A37U, for which the “polymerase ribozyme fitness (log ratio)” value was 0.172.

Consider U9A G39U G45U, for which the “polymerase ribozyme fitness (log ratio)” value is -0.618.

As for U9C C11U G60C G71U U133A, the “polymerase ribozyme fitness (log ratio)” value is -4.61.

Take U9C G45C G48A A90C: the “polymerase ribozyme fitness (log ratio)” value was -0.81.

As to U9C C70G, the “polymerase ribozyme fitness (log ratio)” value is -1.43.

Consider U9A G93A U106C, for which the “polymerase ribozyme fitness (log ratio)” value is -0.115.

Consider U9C C13A A50G C72U A84U C89A C98U C102A, for which the “polymerase ribozyme fitness (log ratio)” value was -6.4.

U9C C56G C62U: the “polymerase ribozyme fitness (log ratio)” value was 0.103.

On to U9A G19C C40G A43U G60U, for which the “polymerase ribozyme fitness (log ratio)” value is -3.06.

For the variant U9A G10C U54A C86A G110U U125A, the “polymerase ribozyme fitness (log ratio)” value was -3.13.

Take U9A U21G A41U G45A U130G: the “polymerase ribozyme fitness (log ratio)” value is -4.18.

As for U9A G110U, the “polymerase ribozyme fitness (log ratio)” value was -0.815.

Regarding U9A C72U, the “polymerase ribozyme fitness (log ratio)” value was 0.716.

For U9A G17U C62A C88U A91G U132A, the “polymerase ribozyme fitness (log ratio)” value was -4.47.

As for U9C G42A, the “polymerase ribozyme fitness (log ratio)” value is -1.15.

As to U9C C15U G42C, the “polymerase ribozyme fitness (log ratio)” value is -0.305.

On to U9A G58A G61A C85A, for which the “polymerase ribozyme fitness (log ratio)” value is -1.75.

Regarding U9C A41U C72U U78A G93C, the “polymerase ribozyme fitness (log ratio)” value is -1.36.

Consider U9C C22G C31G U38G A121U, for which the “polymerase ribozyme fitness (log ratio)” value is -6.73.

Turning to U9C A41G C64U C86A, the “polymerase ribozyme fitness (log ratio)” value is -0.494.

Regarding U9A G45U, the “polymerase ribozyme fitness (log ratio)” value was -2.23.

In the case of U9C A105U U126A U132A, the “polymerase ribozyme fitness (log ratio)” value is -2.93.

With U9C C11A A18C C53G C80G C99A G110U, the “polymerase ribozyme fitness (log ratio)” value was -6.83.

As to U9A G93A C115U, the “polymerase ribozyme fitness (log ratio)” value is -1.19.

Regarding U9C C40U A43G C49G U96G A119G U131A, the “polymerase ribozyme fitness (log ratio)” value is -3.12.

As to U9A G71A, the “polymerase ribozyme fitness (log ratio)” value turned out to be 0.174.

As for U9A G25A, the “polymerase ribozyme fitness (log ratio)” value was -5.66.

Take U9C C56G C88G: the “polymerase ribozyme fitness (log ratio)” value was -1.64.

Consider U9A C73U C123G U134C, for which the “polymerase ribozyme fitness (log ratio)” value is 2.44.

In the case of U9A U14G A41C G42U G60U G93U A121C, the “polymerase ribozyme fitness (log ratio)” value worked out at 0.0286.

As for U9C A16U C88A A95C A111U, the “polymerase ribozyme fitness (log ratio)” value was -5.45.

For U9C C49A C53U C88U U133A, the “polymerase ribozyme fitness (log ratio)” value is -0.445.

Turning to U9A C104A, the “polymerase ribozyme fitness (log ratio)” value was -0.737.

U9C A26U G57C A84U: the “polymerase ribozyme fitness (log ratio)” value was -3.11.

For the variant U9A G42A A43G G47U C56U, the “polymerase ribozyme fitness (log ratio)” value was -3.28.

Consider U9C C40G G63U G69U C79G C82U A118U A119G G135U, for which the “polymerase ribozyme fitness (log ratio)” value was -4.3.

U9A G19C A27G U106C: the “polymerase ribozyme fitness (log ratio)” value was -4.96.

Take U9A G69C G113C C115U: the “polymerase ribozyme fitness (log ratio)” value was -4.52.

Consider U9C G35U A50U, for which the “polymerase ribozyme fitness (log ratio)” value is -6.01.

Regarding U9C A27U C73A C99A, the “polymerase ribozyme fitness (log ratio)” value was -7.21.

For U9C C79A G128C, the “polymerase ribozyme fitness (log ratio)” value is -2.56.

U9A U116C U125A: the “polymerase ribozyme fitness (log ratio)” value was found to be 0.151.

Regarding U9A G19U C88A C114A, the “polymerase ribozyme fitness (log ratio)” value came out at 1.72.

Regarding U9C C56A A83C, the “polymerase ribozyme fitness (log ratio)” value was 0.00737.

On to U9C C64A U67A C73U C85U G120C, for which the “polymerase ribozyme fitness (log ratio)” value is -6.47.

On to U9C G36U G63A, for which the “polymerase ribozyme fitness (log ratio)” value is -1.4.

For the variant U9A G61A A100U, the “polymerase ribozyme fitness (log ratio)” value turned out to be 0.389.

Consider U9A G44U C123A, for which the “polymerase ribozyme fitness (log ratio)” value is 0.274.

On to U9A G17U A74C C82A U87C, for which the “polymerase ribozyme fitness (log ratio)” value was -0.851.

As for U9A C88U U92A, the “polymerase ribozyme fitness (log ratio)” value is -2.44.

For the variant U9C A16U G63C, the “polymerase ribozyme fitness (log ratio)” value turned out to be 0.269.

Take U9C A27C: the “polymerase ribozyme fitness (log ratio)” value is -2.15.

Consider U9C A50U G52C, for which the “polymerase ribozyme fitness (log ratio)” value is -2.28.

Consider U9A G36A A119G, for which the “polymerase ribozyme fitness (log ratio)” value was 0.68.

With U9A G47U C79A A83C, the “polymerase ribozyme fitness (log ratio)” value is -3.93.

Consider U9A G44U C56U G122A, for which the “polymerase ribozyme fitness (log ratio)” value was -0.525.

As to U9C A37U G63A C80U C82G C85G, the “polymerase ribozyme fitness (log ratio)” value is -2.21.

For U9C C13U A37C G39U G93A, the “polymerase ribozyme fitness (log ratio)” value is -5.35.

In the case of U9C G10C C62G C72A A111G U125C, the “polymerase ribozyme fitness (log ratio)” value is -4.6.

Take U9C A41C: the “polymerase ribozyme fitness (log ratio)” value is -0.191.

For U9C A26G C72G C79U, the “polymerase ribozyme fitness (log ratio)” value was -0.65.

In the case of U9C C11G G36U U116A C123G, the “polymerase ribozyme fitness (log ratio)” value was -1.92.

Regarding U9C A90C, the “polymerase ribozyme fitness (log ratio)” value is -0.197.

For the variant U9A U78A G93C C124G G128C, the “polymerase ribozyme fitness (log ratio)” value is -2.15.

As for U9C G36U G63C U112C G128C, the “polymerase ribozyme fitness (log ratio)” value is -1.66.

As for U9C C40A G42C C73A C101A G122A U130A, the “polymerase ribozyme fitness (log ratio)” value was -1.67.

Consider U9C C15G U78G U96C C124U, for which the “polymerase ribozyme fitness (log ratio)” value is -0.775.

On to U9A U38A U54A U96A U133G, for which the “polymerase ribozyme fitness (log ratio)” value is -1.53.

In the case of U9C A119U C123U, the “polymerase ribozyme fitness (log ratio)” value was 2.07.

For the variant U9C A43G G61A C89U, the “polymerase ribozyme fitness (log ratio)” value was -1.55.

On to U9C C72A C76U G77U, for which the “polymerase ribozyme fitness (log ratio)” value was -2.24.

U9C C73U: the “polymerase ribozyme fitness (log ratio)” value was 0.362.

Regarding U9A G42A U129A, the “polymerase ribozyme fitness (log ratio)” value was -2.88.

On to U9A G52A C56A, for which the “polymerase ribozyme fitness (log ratio)” value is -1.03.

As for U9A G52U C72A C88U C124A, the “polymerase ribozyme fitness (log ratio)” value worked out at 1.2.
